In US20170166621A1 (Novartis, published 2017):

What was measured:
[1] = biological target: FGF21 receptor; test: cell-based or functional assay
[2] = biological target: GLP-1 receptor (UniProt P43220 24-463, limits assumed); test: cell-based or functional assay

Binder | potency in the FGF21 receptor assay [1] | cAMP EC50 (fold-Ex-4); GLP-1R only cells [2] | cAMP EC50 (fold-Ex-4); GLP-1R only cells; V253 + V76 co-treatment [2] | cAMP EC50 (fold-Ex-4); GLP-1R/FGFR1c/beta-klotho cells [2] | cAMP EC50 (fold-Ex-4); GLP-1R/FGFR1c/beta-klotho cells; V253 + V76 co-treatment [2] | cAMP EC50 (nM); GLP-1R only cells [2] | cAMP EC50 (nM); GLP-1R only cells; V253 + V76 co-treatment [2] | cAMP EC50 (nM); GLP-1R/FGFR1c/beta-klotho cells [2] | cAMP EC50 (nM); GLP-1R/FGFR1c/beta-klotho cells; V253 + V76 co-treatment [2]
GLP-1(7-35; A8S)-SGGGGSGGG-FGF21(33-194; R154C-40 kDa branched PEG) (ligand, 40 kDa branched PEG on Cys at R154C (FGF21 numbering)) HSEGTFTSDVSSYLEGQAAKEFIAWLVKGGSGGGGSGGGDSSPLLQFGGQVRQRYLYTDDAQQTEAHLEIREDGTVGGAADQSPESLLQLKALKPGVIQILGVKTSRFLCQRPDGALYGSLHFDPEACSFRELLLEDGYNVYQSEAHGLPLHLPGNKSPHCDPAPRGPARFLPLPGLPPALPEPPGILAPQPPDVGSSDPLS | ≥ 1000 fold less potent | 3.2 fold | 3.5 fold | 4.1 fold | 2.1 fold | 34 nM | 38 nM | 24 nM | 12 nM
GLP-1(7-35; A8S)-GSGGGGSGGG-FGF21(33-209; Q56E-D74H-Q82E-R105K-K150R-R154C-40 kDa branched PEG-R159Q-S195A) (ligand, 40 kDa branched PEG on Cys at R154C (FGF21 numbering)) HSEGTFTSDVSSYLEGQAAKEFIAWLVKGGSGGGGSGGGDSSPLLQFGGQVRQRYLYTDDAQETEAHLEIREDGTVGGAAHQSPESLLELKALKPGVIQILGVKTSRFLCQKPDGALYGSLHFDPEACSFRELLLEDGYNVYQSEAHGLPLHLPGNRSPHCDPAPQGPARFLPLPGLPPALPEPPGILAPQPPDVGSSDPLAMVGPSQGRSPSYAS |  | 6 fold |  | 0.4 fold |  | 64 nM |  | 2.4 nM | 
